PMC9734910

Target: Bat37ACE2(18–740) (Pipistrellus pipistrellus (Bat37))
Assay: […]; 20 mM HEPES, 100 mM NaCl, pH 7.5

Substance: Bat37ACE2(18–740) (domain or fragment)
- stoichiometry N: 2
